Test results: the DeepSol protein solubility set

Assay: soluble on expression in E. coli; label from the status in PepcDB or PDB records

Sequence | soluble on expression in E. coli
MSLGSQTDGSPAGGWPALNAVNKHLLHQHVLVKGNRTLLSMNKPGGFDCPSCSWPDPKKPHTFEYCENGAKALAWESTKKRVTPEFFARHTVSELATWSDHDLEKQGRIAEPMRYDAASDKYLPVTWDEAFAEIGEELRQLSDPWKLELYTSGRTSNEAAFLYQLFGRLYGMANFPDCSNMCHETTTVALPESIGVGKGTTTLEDFENADAIFIIGQNPGSNSPRMMSELHAAAKRGASIISFNPLREKALVRFASPQDPRDMLSLHGVEISSQYHQVRIGGDMIALQGVCKAVIEADDVARREHLPRVLDVAFIEEHTHGFEQYADYCRQLPWDLIESHSGLTRQAIEDVAAVYRRSERVICCWGMGVTQHKRGGDAVQQIINLLLLRGNIGKLGAGACPVRGHSNVQGDRTMGIYEKAGEPFLASMSKVFGFEASRRKGHAVAETCEALLRGEVEALISMGGNFFRAIPDIDAICPTVSRLKMTVLVNTKLNRSATVHGQKAFLLPCVARSERDLQNGVAQTITVEDSMSIVHGSTGMLEPASKHLISEVAIIAGIAKATLAPNPNVDWDSYVGDYARIRDKIEEVLPEQFYDFNRRILEPGGFRLPNAASERKWDTESGKANFLFTEGIYDEDDTPPGAAHLQLMTIRSHDQFNTTVYSNDDRYRDIFGDRMVVMLNPQDIERLGLKAGDYIEFQTALDLTTPRRAPGFKVIAYDVPPGCCAAYYPETNGLLPLANRDSRSNTPAAKSIPVNLVRMSPEGAQVALEREGHHHHHH | soluble
MITYKNILIAVDGSHEAEWAFNRAVGVAKRNDAKLTIVNVIDSRTYSSYEVYDAQFTEKSKHFAEELLNGYKEVATNAGVKDVETRLEFGSPKSIIPKKLAHEINADLIMSGTSGLNAVERFIVGSVSESIVRHAPCDVLVVRTEELPADFQPQVATTQLREKYQN | not soluble
MGTSVTPNIFDFLIKIDPFDKLPEPVVESIANSVKVKYLVRGETIGFSALCDQRYLYIIRTGAIEQRTPNGELRARLGQDDQFGFTFLDPLENAEDGYQAEAIEDSLLYLIPHSELKLVSEEHPEFADYFAAQANVRLSSAVKYVCRKEEKGLFFRTVGEIASENIAIVDVNDSIRSVAQTMCGKQRSSCAVVMKEGEIIGLVTDRDMTKSVVAQDMDTNQPIADVMTPNPVLIEDDAKVIQAISLMLQYNIRCLPVVHGKQVKGLLTTTHLVHNHRTQSLFLIEKIKYASSLNALAALKEERQTIFQALVESGVSAEIQGRVMSMIMDAFTRRIIQLNEELLGPPPCDYAWLVAGSHARNEVHMLSDQDSAIVLSDDATEEHKLYFTHLAMRVCNGLAACGYPLCDGKYMAASPKWCQPIRRWKEYYQKWVASPEYNKLLSISVFLEVRAIHGNREFVDQIQQHLHDCIQKSPSFIPALVRDAIDTQPPLGIFNNLVLEKGGENSNTLNIKKYALNLIIDLARIFSLAAGGSLTGTEERFRYAAQHGTLSKDSVENIIGAYRFITQVRFRHQLNAILAGTTPDNHIAPDDFSSFERKHLKDAFKIISELQDVAKLKFVKGA | not soluble
MSDVAVAADTTETPAAPTKASKATKASKATKASKATKAKTTKVPMVKADAAHPPFINMVTEAISSIKDRKGPSRAAILKYITTKYTLGDQANKINAHLRKALNKGLESNAFVQASGNGANGRFRLAEKTASVAKSPAAAKKDATGEKKATTTVAKKAATGEKKATTTVAKKAATGEKKATTTVAKKAAAGDKAKKTEVKVKKVKSPKKIAKSPVNKVTKSPVKKIAKSSSMKAAPKKAAAKPAKKAPAAAPEA | soluble
MWNAGRETSSPGTELSENQAKKEKERLIKELQLITEERNDLRDRLRFLTERSMKNRSHFRPNPYYEDLERMEEAVMSILHNLEMENTEVHENNHKLKKEITFSR | soluble
MSLSLWQQCLARLQDELPATEFSMWIRPLQAELSDNTLALYAPNRFVLDWVRDKYLNNINVLLNDFCGMDAPLLRFEVGSKPLVQTISQPAQSHHNPVSVARQQPVRMAPVRPSWDNSPVQAEHTYRSNVNPKHTFDNFVEGKSNQLARAAARQVADNPGGAYNPLFLYGGTGLGKTHLLHAVGNGIIARKPNAKVVYMHSERFVQDMVKALQNNAIEEFKRYYRSVDALLIDDIQFFANKERSQEEFFHTFNALLEGNQQIILTSDRYPKEINGVEDRLKSRFGWGLTVAIEPPELETRVAILMKKADENDIRLPGEVAFFIAKRLRSNVRELEGALNRVIANANFTGRSITIDFVREALRDLLALQEKLVTIDNIQKTVAEYYKIKIADLLSKRRSRSVARPRQMAMALAKELTNHSLPEIGDAFGGRDHTTVLHACRKIEQLREESHDIKEDFSNLIRTLSSLEHHHHHH | soluble
